Source: patent US20240182897

Tested on: T1, pegylated peptide-linked C12-miR (P.5-L-C12-miR)
T1 sequence: KGDGG

## lysosomal enzyme Cathepsin D (Cat. No. C8696, Sigma-Aldrich)
  enzyme cleavage in vitro, size reduction on 15% acrylamide/8 M urea gel: the pegylated peptide-linked C12-miR (P.5-L-C12-miR) was cleaved by lysosomal cathepsin D and resulted in a smaller fragment
